In patent US6107048:

Assays:
[1] = target: monoclonal antibody 8H10; assay: competition ELISA: peptide inhibits binding of 8H10 to recombinant Rab11
[2] = target: monoclonal antibody 12C3; assay: competition ELISA: peptide inhibits binding of 12C3 to recombinant Rab25

Binder	IC50 [1]	IC60 [2]
QKQMSDRRENDMSPSNNVVPIHVPPTTENKPKVQ [Rab11 C-terminal variable region synthetic peptide]	1 mg/L	–
KVSKQIQNSPRSNAIALGSAQAGQEPGPGQKR [Rab25 C-terminal variable region synthetic peptide]	–	1 mg/L
